Assay results reported in patent US20140024594A1.

Biological target: GFP-MG53 (mouse) (UniProt Q1XH17)
Experiment: cell-based or functional assay

Chain of UniProt Q1XH17 (Q1XH17 whole entry): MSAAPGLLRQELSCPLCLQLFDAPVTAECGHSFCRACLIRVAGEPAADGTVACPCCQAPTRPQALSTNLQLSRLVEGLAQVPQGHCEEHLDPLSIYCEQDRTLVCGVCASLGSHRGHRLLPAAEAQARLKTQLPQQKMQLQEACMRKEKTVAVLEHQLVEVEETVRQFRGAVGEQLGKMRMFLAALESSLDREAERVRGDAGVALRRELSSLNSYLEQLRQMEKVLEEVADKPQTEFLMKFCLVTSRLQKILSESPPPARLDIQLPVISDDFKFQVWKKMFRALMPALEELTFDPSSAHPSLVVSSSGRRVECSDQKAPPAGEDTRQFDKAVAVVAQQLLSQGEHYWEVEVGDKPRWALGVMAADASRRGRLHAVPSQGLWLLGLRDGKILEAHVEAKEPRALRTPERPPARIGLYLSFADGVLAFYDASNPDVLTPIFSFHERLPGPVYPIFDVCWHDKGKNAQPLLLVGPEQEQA

Work on “caveolin-3 overexpressed from pcDNA-Cav-3” yielded a reduction in the appearance of filapodia-like structures of 82%.
